The values that follow come from EP4039268A1 (IMBA-Institut für Molekulare Biotechnologie GmbH, dated 2022).

Common to all, as to experiment: ELISA screen
A general note: ELISA stands for enzyme-linked immunosorbent assay.

For assay [1], the target named is T1, full-length trimeric SARS-CoV-2 Spike protein (Spike-H6) (SARS-CoV-2, N-glycosylated (22 N-glycosylation sites)).
T1 construct: also called trimeric Spike; full-length Spike-H6

The target of assay [2] is T2, monomeric SARS-CoV-2 receptor binding domain (RBD-H6) (SARS-CoV-2, UniProt P0DTC2 319-541).
T2 construct: Made in HEK293-6E cells; also called RBD Spike; monomeric RBD

Assay [3] has as its target T3, human recombinant soluble ACE2 (human, UniProt Q9BYF1 18-740).
T3 construct: also called hrsACE2

T3 sequence (Q9BYF1 18-740 limits assumed): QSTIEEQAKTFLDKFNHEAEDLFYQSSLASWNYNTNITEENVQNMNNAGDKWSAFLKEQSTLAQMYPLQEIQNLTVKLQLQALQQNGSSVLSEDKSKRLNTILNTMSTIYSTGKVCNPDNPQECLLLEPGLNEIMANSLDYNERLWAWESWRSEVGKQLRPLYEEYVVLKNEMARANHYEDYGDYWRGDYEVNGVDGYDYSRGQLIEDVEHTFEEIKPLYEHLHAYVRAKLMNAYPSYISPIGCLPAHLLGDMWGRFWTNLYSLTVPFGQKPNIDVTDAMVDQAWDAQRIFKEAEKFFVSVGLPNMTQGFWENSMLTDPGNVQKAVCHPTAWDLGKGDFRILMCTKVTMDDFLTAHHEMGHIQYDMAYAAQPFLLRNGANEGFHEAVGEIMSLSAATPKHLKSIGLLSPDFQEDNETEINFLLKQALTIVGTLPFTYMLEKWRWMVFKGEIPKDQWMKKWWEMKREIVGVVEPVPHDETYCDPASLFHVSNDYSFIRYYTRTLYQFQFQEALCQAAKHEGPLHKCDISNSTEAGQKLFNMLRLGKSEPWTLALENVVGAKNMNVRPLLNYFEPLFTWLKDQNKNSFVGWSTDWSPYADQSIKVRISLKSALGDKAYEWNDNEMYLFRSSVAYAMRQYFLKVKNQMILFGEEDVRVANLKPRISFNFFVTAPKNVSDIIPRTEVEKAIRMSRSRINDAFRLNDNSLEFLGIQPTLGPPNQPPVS

B1: Clec7a CRD-mouse IgG2a-Fc fusion protein (Fc fusion)
chain: HGKSCYLFSFSGNSWYGSKRHCSQLGAHLLKIDNSKEFEFIESQTSSHRINAFWIGLSRNQSEGPWFWEDGSAFFPNSFQVRNTAPQESLLHNCVWIHGSEVYNQICNTSSYSICEGGGSGGGSGGGS
Regarding B1, the entries for the “Mean normalized OD” value in assay [1], in assay [2] and in assay [3] were 0 OD, 0.004 OD and -0.001 OD, respectively.

B2: Clec2i CRD-mouse IgG2a-Fc fusion protein (Fc fusion)
chain: VGNKCFYFSGYPRNWTFAQAFCMAQEAQLARFDNEEELIFLKRFKGDFDCWIGLHRESSEHPWKWTNNTEYNNMNPILGVGRYAYLSSDRISSSRSYINRMWICSGGGSGGGSGGGS
Take B2: the “Mean normalized OD” value in assay [1] is -0.61 OD; in assay [3], -0.249 OD.

B3: Clec6a CRD-mouse IgG2a-Fc fusion protein (Fc fusion)
chain: FGSSCYLISTKENFWSTSEQNCVQMGAHLVVINTEAEQNFITQQLNESLSYFLGLSDPQGNGKWQWIDDTPFSQNVRFWHPHEPNLPEERCVSIVYWNPSKWGWNDVFCDSKHNSICEGGGSGGGSGGGS
On to B3, for which the “Mean normalized OD” value in assay [1] is 0.003 OD; in assay [2], 0.029 OD; in assay [3] it was -0.032 OD.

B4: Colec12 CRD-mouse IgG2a-Fc fusion protein (Fc fusion)
chain: FTDKCYYFSLEKEIFEDAKLFCEDKSSHLVFINSREEQQWIKKHTVGRESHWIGLTDSEQESEWKWLDGSPVDYKNWKAGQPDNWGSGHGPGEDCAGLIYAGQWNDFQCDEINNFICEGGGSGGGSGGGS
Regarding B4, the “Mean normalized OD” value in assay [1] turned out to be 0.04 OD; in assay [2], 0.027 OD.

B5: Ly75_10 CRD-mouse IgG2a-Fc fusion protein (Fc fusion)
chain: YGGHCYASDQVLHSFSEAKQVCQELDHSATVVTIADENENKFVSRLMRENYNITMRVWLGLSQHSLDQSWSWLDGLDVTFVKWENKTKDGDGKCSILIASNETWRKVHCSRGYARAVCKIGGGSGGGSGGGS
In the case of B5, the figures for the “Mean normalized OD” value in assay [1], in assay [2] and in assay [3] were -0.002 OD, 0.014 OD and -0.02 OD, respectively.

B6: Klrb1c CRD-mouse IgG2a-Fc fusion protein (Fc fusion)
chain: HRDKCFHVSQVSNTWEEGQADCGRKGATLLLIQDQEELRFLLDSIKEKYNSFWIGLRFTLPDMNWKWINGTTFNSDVLKITGVTENGSCASILGDKVTPESCASDNRWICQGGGSGGGSGGGS
Consider B6, for which the “Mean normalized OD” value in assay [1] was 0.001 OD; in assay [2], 0.004 OD; in assay [3], -0.004 OD.

B7: Klrg2 CRD-mouse IgG2a-Fc fusion protein (Fc fusion)
chain: SQEQCYYLSEEAQDWEGSQAFCSAHHATLPLLSHTQDFLRKYRITKGSWVGARRGPEGWHWTDGVPLPYQLFPADSEDHPDFSCGGLEEGRLVALDCSSPRPWVCAGGGSGGGSGGGS
On to B7, for which the figures for the “Mean normalized OD” value in assay [1], in assay [2] and in assay [3] were -0.044 OD, 0.043 OD and -0.013 OD, respectively.

B8: Klre1 CRD-mouse IgG2a-Fc fusion protein (Fc fusion)
chain: FRCSCYFFSKEELIWRDSQRACLSLNSSLIRMNKEEMNFFSLKSFFWVGVYYNETRRQWLWEDHSVLPSGLFSKLEANMKNFCASYKSKEAYMEENCANKLTYICKGGGSGGGSGGGS
Regarding B8, the “Mean normalized OD” value in assay [1] is -0.002 OD; in assay [2], 0.045 OD; in assay [3] it was -0.006 OD.

B9: Ly75_5 CRD-mouse IgG2a-Fc fusion protein (Fc fusion)
chain: IEGSEYWFVADPHLNYEEAVLYCASNHSFLATITSFTGLKAIKNKLANISGEEQKWWVKTSENPIDRYFLGSRRRLWHHFPMTFGDECLHMSAKTWLVDLSKRADCNAKLPFICEGGGSGGGSGGGS
Consider B9, for which the entries for the “Mean normalized OD” value in assay [1] and in assay [3] were -0.17 OD and -0.106 OD, respectively.

B10: Klrk1 CRD-mouse IgG2a-Fc fusion protein (Fc fusion)
chain: HRNNCYQFFNEEKTWNQSQASCLSQNSSLLKIYSKEEQDFLKLVKSYHWMGLVQIPANGSWQWEDGSSLSYNQLTLVEIPKGSCAVYGSSFKAYTEDCANLNTYICMGGGSGGGSGGGS
Regarding B10, the “Mean normalized OD” value in assay [1] was 0 OD; in assay [2] it was 0 OD; in assay [3] it was -0.003 OD.

B11: Ncan CRD-mouse IgG2a-Fc fusion protein (Fc fusion)
chain: not shown
With B11, the “Mean normalized OD” value in assay [1] was -0.09 OD; in assay [3] it was -0.589 OD.

B12: Lgalsl CRD-mouse IgG2a-Fc fusion protein (Fc fusion)
chain: PFCGHIKGGMRPGKKVLVMGIVDLNPESFAISLTCGDSEDPPADVAIELKAVFTDRQLLRNSCISGERGEEQSAIPYFPFIPDQPFRVEILCEHPRFRVFVDGHQLFDFYHRIQTLSAIDTIKINGDLQIGGGSGGGSGGGS
B12: the “Mean normalized OD” value in assay [1] is 0.006 OD; in assay [2] it was 0.001 OD; in assay [3], -0.004 OD.

B13: Ly75_2 CRD-mouse IgG2a-Fc fusion protein (Fc fusion)
chain: NNGFCYLLANESSSWDAAHLKCKAFGADLISMHSLADVEVVVTKLHNGDVKKEIWTGLKNTNSPALFQWSDGTEVTLTYWNENEPSVPFNKTPNCVSYLGKLGQWKVQSCEKKLRYVCKGGGSGGGSGGGS
B13: the “Mean normalized OD” value in assay [1] is -0.319 OD; in assay [3], -0.135 OD.

B14: Clec2h CRD-mouse IgG2a-Fc fusion protein (Fc fusion)
chain: FGSKCFYFSEDMGNWTFSQSSCVASNSHLALFHSLEELNFLKRYKGTSDHWIGLHRASTQHPWIWTDNTEYSNLVLTRGGGECGFLSDNGISSGRSYTHRKWICSGGGSGGGSGGGS
Take B14: the “Mean normalized OD” value in assay [1] was -0.387 OD; in assay [3], -0.707 OD.

B15: Klri1 CRD-mouse IgG2a-Fc fusion protein (Fc fusion)
chain: FGNNFYCVFKENTKTWAESQSACEELNSHLVIIDSKAEVENLLLFEMDGWILHKMDGTNSSWLWRNDIKIQNTLTNDSEKKNHSCHYLRGNLFMPDECSAKKSYICEGGGSGGGSGGGS
Turning to B15, the results for the “Mean normalized OD” value in assay [1], in assay [2] and in assay [3] were 0.002 OD, 0.001 OD and -0.003 OD, respectively.

B16: Ly75_1 CRD-mouse IgG2a-Fc fusion protein (Fc fusion)
chain: QIGSCYQFNNQEILSWKEAYVSCQNQGADLLSIHSAAELAYITGKEDIARLVWLGLNQLYSARGWEWSDFRPLKFLNWDPGTPVAPVIGGSSCARMDTESGLWQSVSCESQQPYVCKGGGSGGGSGGGS
Turning to B16, the “Mean normalized OD” value was -0.434 OD in assay [1] and -0.571 OD in assay [3].

B17: Siglec10 CRD-mouse IgG2a-Fc fusion protein (Fc fusion)
chain: VQRIVKAQEGLCIFVPCSFSSPEGKWLNRSPLYGYWFKGIRKPSLSFPVATNNKDKVLEWEARGRFQLLGDISKKNCSLLIKDVQWGDSTNYFFRMERGFERFSFKEEFRLQVGGGSGGGSGGGS
In the case of B17, the “Mean normalized OD” value in assay [1] turned out to be 0.046 OD; in assay [2] it was 0.015 OD.

B18: Lgals9_2 CRD-mouse IgG2a-Fc fusion protein (Fc fusion)
chain: FYTPIPNGLYPSKSIMISGNVLPDATRFHINLRCGGDIAFHLNPRFNENAVVRNTQINNSWGQEERSLLGRMPFSRGQSFSVWIICEGHCFKVAVNGQHMCEYYHRLKNLQDINTLEVAGDIQLTHVQTGGGSGGGSGGGS
Take B18: the entries for the “Mean normalized OD” value in assay [1] and in assay [2] were 0.056 OD and 0.033 OD, respectively.

B19: Klrg1 CRD-mouse IgG2a-Fc fusion protein (Fc fusion)
chain: NGSHCYYFSMEKKDWNSSLKFCADKGSHLLTFPDNQGVKLFGEYLGQDFYWIGLRNIDGWRWEGGPALSLRILTNSLIQRCGAIHRNGLQASSCEVALQWICKGGGSGGGSGGGS
For the molecule B19, the results for the “Mean normalized OD” value in assay [1], in assay [2] and in assay [3] were 0.003 OD, 0.003 OD and -0.843 OD, respectively.

B20: Clec2g CRD-mouse IgG2a-Fc fusion protein (Fc fusion)
chain: VGNKCFYFSEYTSNWTFAQTFCMAQEAQLARFDNEKELNFLMRYKANFDSWIGLHRESSEHPWKWTDNTEYNNMIPIQGVETCAYLSGNGISSSRHYIPRIWICSGGGSGGGSGGGS
Consider B20, for which the “Mean normalized OD” value in assay [1] is -0.241 OD; in assay [3], -0.722 OD.

B21: Cd209b CRD-mouse IgG2a-Fc fusion protein (Fc fusion)
chain: FLLGNCYFFSKSQRNWNDAVTACKEVKAQLVIINSDEEQTFLQQTSKAKGPTWMGLSDLKKEATWLWVDGSTLSSRFQKYWNRGEPNNIGEEDCVEFAGDGWNDSKCELKKFWICKGGGSGGGSGGGS
In the case of B21, the “Mean normalized OD” value in assay [1] is -0.032 OD; in assay [2], 0.113 OD; in assay [3], -0.094 OD.

B22: Atrnl1 CRD-mouse IgG2a-Fc fusion protein (Fc fusion)
chain: VGDACLRINSSRESYDNAKLYCYNLSGNLASLTTSKEVEFVLDEIQKFTQQKVSPWVGLRKINISYWGWEDMSPFTNTSLQWLPGEPNDSGFCAYLERAAVAGLKANPCTSMADGLVCEGGGSGGGSGGGS
In the case of B22, the “Mean normalized OD” value in assay [1] is 0.001 OD; in assay [2], 0.001 OD; in assay [3] it was -0.003 OD.

B23: Lgals6_2 CRD-mouse IgG2a-Fc fusion protein (Fc fusion)
chain: YVGALQGGFTVRRTIIIKGYVLPTAKTFAINFRVGSSEDIALHINPRIGDCLVRNSYMNGSWGTEERMVAYNPFGPGQFFDLSIRCGMDRFKVFANGIHLFNFSHRFQALRKINTLEINGDLTLSYVHIGGGSGGGSGGGS
Consider B23, for which the “Mean normalized OD” value in assay [1] came out at 0.135 OD.

B24: Vcan CRD-mouse IgG2a-Fc fusion protein (Fc fusion)
chain: not shown
Take B24: the figures for the “Mean normalized OD” value in assay [1] and in assay [2] were 0.064 OD and 0.052 OD, respectively.

B25: Layn CRD-mouse IgG2a-Fc fusion protein (Fc fusion)
chain: TRRPCYKVIYFHDAFQRLNFEEAKETCMEDGGQLVSIETEDEQRLIEKFIENLLASDGDFWIGLKRLEEKQSNNTACQDLYAWTDGSTSQFRNWYVDEPSCGSEVCVVMYHQPSAPPGIGGSYMFQWNDDRCNMKNNFICKGGGSGGGSGGGS
For the molecule B25, the “Mean normalized OD” value in assay [1] was 0.002 OD; in assay [2], 0 OD; in assay [3] it was -0.005 OD.

B26: Bcan CRD-mouse IgG2a-Fc fusion protein (Fc fusion)
chain: not shown
Take B26: the figures for the “Mean normalized OD” value in assay [1] and in assay [3] were -0.111 OD and -0.538 OD, respectively.

B27: Clec5a CRD-mouse IgG2a-Fc fusion protein (Fc fusion)
chain: HQGKCFFFSFSESPWKDSMDYCATQGSTLAIVNTPEKLKYLQDIAGIENYFIGLVRQPGEKKWRWINNSVFNGNVTNQDQNFDCVTIGLTKTYDAASCEVSYRWICEGGGSGGGSGGGS
B27: the “Mean normalized OD” value in assay [1] was 0 OD; in assay [2], -0.001 OD; in assay [3], -0.005 OD.
